Test: yeast display, Sf9 membrane polyspecificity reagent, FACS + sequencing; frameworks hold sequencing errors
Method in brief: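 Nanobodies came from a synthetic yeast display library in Saccharomyces cerevisiae BJ5465, induced with galactose for 36–48 hours and stained for 1 hour at 4 °C with 10% biotinylated, detergent-solubilized Sf9 membrane reagent. Cells were enriched on streptavidin microbeads and then FACS-sorted, with low and high (top ~1%) gates set on anti-HA fluorescence for expression and streptavidin fluorescence for reagent binding. Each polyreactivity label reflects the gate a clone came from. Genes were amplified by colony PCR, sequenced by MiSeq 2 × 250 and filtered by CDR length.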

Row | Sequence | polyreactivity (PSR sort gate)
1 | QVQLVESGGGLVQAGGSLRLSCAASGITFYDYAMGWYRQAPGKERELVAAISFSGSRTYYADSVKGRFTISRDHAKNTVSLQMNSLKPDDTAVYYCAASQASNYKIYDYWGQGTQVTVSS | high polyreactivity
2 | QVQLVESGGGLVQAGGSLRLSCAASGSTFYTNDMGWYRQAPGKERELVAAITSSGNTNYADSVKGRFTISRDNAKNTVFLQMNCLKPEDTAVYYYYYYQYDYWGQGTQVTVSS | low polyreactivity
3 | QVQLVESGGGLVQAGASLRLSCAPSGSIFLAYAMGWYRQAPGKEREFVAALSFTDGSTYYADSVKGRFTISRDNAKNTVYLQMNSLKPEDTAVYYCNKGASPDDYDYWGQGTQVTVSS | low polyreactivity
4 | QVQLEESWGCLVQAGGSLRLSCAASGYTFVNYAMGWSRQAPGKEREFVAAISRSGGSTYYADSVKGRFTISRDNAKNTDYLQMHSLKPEDTAVYYCALRGYPPYKYYYWGQGTQVTVSS | high polyreactivity
5 | QVQLVESGGGLVQAGGSLRLSCAASGLTFGGYAMGWYRQAPGKERELVAAISRSGGSTYYADSVKGRFTISRDNAKNTVYLQMNSLQPEDTAVYYCNGGRGTKYDYWGQGTQVTVSS | low polyreactivity
6 | QVQLVESGGGLVQAGGSLRLICAASGFNFQRYAMGWYIQAPGKERELVATISNSGGRTYYADSVKGRFTISRDNAKNTVYLQMNSLKPEDTAVYYCAAGKPYSSYWSWGYWSNLEDDYWGQGTQVTVSS | high polyreactivity
7 | QVQLVESGGGLVQAVGSLRLSCAASGSTFFWYAMGWYRQAPGKERELVAAISKTGGSTYYADSVKGRFTISRDNAKNTVYLQMNSLKPEDTAVYYCAKPLSSFSRTSSVWPWYDYWGQGTQVTVSS | low polyreactivity
8 | QVQLVESGGGLVQAGGSLRLSCAASGFIFAAYAMGWYRQAPGKERELVAAINRSGSSTYYADSVKGRFTISRDNAKNTVYLQMNSLKPEDTAVYYCAARVVHQSRYSYEYWGQGTQVTVSS | high polyreactivity
9 | QVQLVESGGGLVQAGGSLRLSCAASGIIFYYYTMGWYRQAPGKERELVASISRDGGSTHYADSVKGRFTISRDNAKNTVYLLMNSLKPEDTAVYYCAARDPTGSSYAFYRRKVYYWGQGTQVTVSS | high polyreactivity
10 | QVQLVESGGGLVQAGGSLRLSCAASGSTIYTYAMGWYRPAPGKERELVAAISYRAGSTYYADSVKGRFTISRDNAKTSVYFQMNSLTPEDTAVYYCNVDGVVVGTKRGGYDYWGQGTQVTVSS | low polyreactivity
11 | QVQLVESGGGFDHAGGSLRLSCAAYGSTFVYNAMGWYRQAPGKERELVAAITSTGGNTDYADSVKGRFTISRDNAKNTVYLQMNSLKPEDTAVYYCNARDYYWLGFTYRFDYWGQGTQVTVSS | low polyreactivity
12 | QVQLVESGGGLVQAGGSLRLRCAASGFTFYHYAMGWYRQAPGKERELVAAITWSGGDTYYADSVKGRFTISRDNAKNTVYLQMNSLKPEDTAVYYCNADDPPGAPYYDSFDYRGDYWGQGTQVTVSS | low polyreactivity
13 | QVQLVESGGGLVQAGGSLRLSCAASGRIFGGNADMGWDRQAPGKERELVAVIDWSGGSTYYADSVKGRFTISRDNAKNTVYFQMHSLKPEDTAVYYCNADAPRSSGDYGQGDYWGQGTQVTVSS | high polyreactivity
14 | QDQLVESGVGIVQAGGRLRLSCAASGRTFGRNAMGWYIQAPGKERELVATISRSGGSTNYADSVKGRFTISRDNAKNTVYLQMNSLKPEDTAVYYCAKARPFSYDYWGLGTQVTVSS | high polyreactivity
15 | QVQLVESGGGLVQAGGSLRLSCAASGSIFPGNGMGWYRQAPGKERELVAAITWSVATTYYADSVKGRFTISRDNAKNTVYLQMNSLKPEDTAVYYCAADDAYPYDWGQGTQVTVSS | low polyreactivity
16 | QVQLVESGGGLVQAGGSLRLSCAASGRISVKYAMGWYRQAPGKERELVAANDSSGGSTSYADSVKGRFTISRDNAKNTVYLQMNSLKPEDTAVYYCADDTWYRAGYFVFYYDYWGQGTQVTVSS | low polyreactivity
17 | QVQLVESGGGLVQAGGSLRLSCAASGRIFAYNTMGWYRQAPGKEREMVAVITSGGSTNYADSVKGRFTISRDNAKITVYLQMNSLKPEDTAVYYCAKRPYGRSGGSRYDYWGHGTQVTVSS | high polyreactivity
18 | QVQLVESGGGLVQAGGSLRLSCAASGRIFGRYAMGWYRPAPGKERELVAAITYRTGRTYYADSVKGRFTISRDNAKNTVYLQMNSLKPEDTAVYYCDAESTSDPIDFEYWGQGTQVTVSS | low polyreactivity
19 | QVQLVESGGGVVQAGGSLRLSCAASGITFRSYLMGWYRQAPGKEREFVAAITGSAGSTYYADSVKGRFTISRDNAKTTVYLQINSLKAEDTAVYYCAARVRYVNPKYYYLGQGTQVTVSS | high polyreactivity
20 | QVQLVESGGGLVQAGGSLRLSCAASGSTIYRYAMGWNRQAPGKERELVATISRTGARTNYADSVKGRFTISRDNAKNTVYLQMNSLKPEDTAVYYCAASAPYIYYWGQGTQVTVSS | high polyreactivity
21 | QVQLVESGGGLVQAGASLRLSCAASGFTFYSYDMGWYRQAPGKERELVAVITERGSSTYYADSVKGRFTISRDNAKNTVYLQMNSLKPEDTAVYYCAAYSEYYGVYYWGQGTLVTVSS | low polyreactivity
22 | QVQLVESGGGLVQTGGSLRLSCAASGSIYGEYAMGWYRQSPGKEREFVADITWSDGSTYYADSVKGRFTISRDNAKNTVYLQMNSLKPEDTAVYYCAADSVLDRQVLYLWPWYLGDYWGQGTQVTVSS | low polyreactivity

Row | Sequence | polyreactivity (PSR sort gate)
23 | QVQLVESGGGLVQAGGSLRLSCAASGRTLVVNDMGWYRQAPGKERELVADINWSGGRTYYADSVKGRFTISRDNAKNTVYLQMNSLKPEDTAVYYCAADLSWRQYYREYDYWGQGTEVTVSS | high polyreactivity
24 | QVQLVESGGGLVQAGGSLRLSCAASGSTFPANAMGCYRQAPGKERELVATISWSCGRTYYADSVKGRFTISRDNAKNTVYLQMNSLKPEDSAVYYCAKGYYWLSTYGDSRYGYWGQGTQVTVSS | high polyreactivity
25 | QVQLVESGGGLVQAGGSLRLSCAASGRTFRYNAMGWYRQAPGKERELVAAISGSGGITYYADSVKGRFTISRDNAKNTVYLQMNSLKPEDTAVYYCAAVYRYNSDPDYDYWGQGTQVTVSS | high polyreactivity
26 | QVQLVESGGGLVQAGGSLSLTCAAYGRTITRYVMGWYRQAPGKERELVAYISRGGSTNYADSVKGRFTISRDNAKNTVYLQMNSLKPEDSAVYYCAARFSWGGYYSTTYPLTHDYWGQGTQVNVSS | high polyreactivity
27 | QLQHVESGVGIVQAGRSLRLSCAASGRTFSHYAMGWYRQAPGKERELVAAIRWRGGSTYYADSVKGRFTISRDNAKNTVYLQMNSRKPEDTAVSYCAAVALYIWTHPSDYWGLGTQVTVSS | high polyreactivity
28 | QVQIVDSGGGLVQAGGRLRLSCAPSGITFVYYAMGWYRQAPGKEREFVASITSNGVSTYYADSVKGRYTISRDNAMNTVYLQMNSLKPEDTAVYYCAADGTYRNYWYDYWGQGTQVTVSS | low polyreactivity
29 | QDQLVESGGGLVQAGGSLPLSCAASGLTFDYYVMGGYRQAPGKERELVATISWSGDITYYADSVKGRFTISRDNAKNTVYLQMNSLKPEDTAVYYCAADPYSWREGGYWGQGTQVTVSS | low polyreactivity
30 | QVQLVESVGGLVQAGGSLRLSCAASGRTFAQNALGWYRQAPGKERELVAAIRSGGRTNYADSVKGRFTISRDNAKNTVYLQMNSLKPEDTAVYYCAAEWGYWSFYLGRAKVEYWGQGTQVTVSS | low polyreactivity
31 | QVQLVESGGGLVQAGGSLRFSCAASGFIFTLYAMGWYRQAPGKERELVASIRGSGGNTYYADSVKGRFTISRDNEKNTVYLQMNSLKPEDTAVYYCAARTYRRPYYSWGQGTQVTVSS | high polyreactivity
32 | QVQLVESGGGLVQAGGSLRLSCAASGFTFYGYAMGWYRQAPGKERELVAAISSSGGRTYYADSVKGRFTISRDNSKNTVYLQMNSLKPEDTAVYYCAADYTSRDYYYWGQGTQVTVSS | high polyreactivity
33 | QVQLVESGGGLVQAGGSLRLSCAASGLTFPTNAMGRYRQAHGKESQFVAAITSRGGTTYYADSVTGRFPISRDNAKNTVYLQMNSLKPEDTAVYYCAALSVTIDQSYRYGYWGQGTQVTVSS | low polyreactivity
34 | QVQLVESGGGLVQAGGSLRLSCAASGSTLTVNVMGWYRHAPGKEREFVAAINDSGSTYYADSVKGRFTISRDNAKNTVYLQMNSLKPEDTAVYYCATYYWVGLSLYDYWGQGTQVTVSS | low polyreactivity
35 | QVQLVESGGGLFQAGGSLRLSCAASGRTFYYYAMGWYRQAPGKERELVASISRTGGPTSYADSVKGRFTISRDTAKNPVYLQMNSLKPEDTAVYYCATRRRVYSGYDYWGQGTQVTVSS | high polyreactivity
36 | QVQLVESGGGLVQAGGSLRLSCAASGSTFDYYAMGWYRQAPGKERELVAAISGSGDRTYYADSVKGGFTISRDNAKNTVYLQMNSLKREDTAVYYCAKYGRTRFYYWGQVTQVTVSS | high polyreactivity
37 | QVQLVESGAGLVQAGGSLRLSCAASGRTFINNVMGWYRQAPGKERELVAAINSGSSTKYADSVKRRFTISRDNAKNTVYLQMNSLKPEDTAVYYCAAELWYFSEIGRMDYWGQGTIVTVSS | high polyreactivity
38 | QVHLVESGGGLVQAGGSLRLSCAASGSIFVQYAMGWYRQAPGKERELVAAITRDGDRTYYADSVKGRFTISRDNAKNTVYLQMNSLKPEDTAVYYCAARHSSIRSPQYDYWGQGTQVTVSS | high polyreactivity
39 | QVQLVESGGGLVQAGGSLRLSCAASGFIFDSYAMGWYRQAPGKERELVATITKGGGRTYYADSVKGRFTISRDNAKNTVYLQMNSLKPEDTAVYYCNARGFSRRKGLDYWGQGTQVTVSS | low polyreactivity
40 | QVQLVESGGGLVQAGGSLRLSCAASGSIFYSNVMGWYRQAPGKERELVAAIRYSGVGTYYADSVKGRFTISRDNAKNTVYLQMNSLKPEDTAVYYCNAVTKVGYLRRRDYWGQGTQVTVSS | low polyreactivity
41 | QVQLVESGGGLVQAGGSLRLSCAASGRIFGGNAMGWYRPAPGKERELVAAITTRGGSTYADSVKGRFTISRDNAKNTVYLQMNSLKPEDTAVYYCAVERSYHGGPRYLVRTYGYWGQGTQVTVSS | low polyreactivity
42 | QVQLVESGGGLVQAGGSLRLSCAASGFTFYRYAMGWYRQAPGKERELVAAISGSGCSKYYADSVKGRFTISRDNAKNTVYLHRNSLKPEDTAVYYCNTVWFYGAKYDYWGQGTQVTVSS | high polyreactivity
43 | QVQLVQSGGGLVQAGGSLRLSCAASGLTNYRYAMGWNRQAPGQEREFVAGISASGGGSSYADSVKGRFTISRDNAKNTVYLQMNRLKPEDTAVYYCAATTTFFVWQGHNYCGQGTQVTVSS | low polyreactivity
